Results from patent US20200010523A1 (INSTITUTE FOR CANCER RESEARCH, published 2020).

Molecular target: T1, human Müllerian-inhibiting substance type II receptor (MISIIR) (human, UniProt Q16671 18-573)
T1 sequence (looked up): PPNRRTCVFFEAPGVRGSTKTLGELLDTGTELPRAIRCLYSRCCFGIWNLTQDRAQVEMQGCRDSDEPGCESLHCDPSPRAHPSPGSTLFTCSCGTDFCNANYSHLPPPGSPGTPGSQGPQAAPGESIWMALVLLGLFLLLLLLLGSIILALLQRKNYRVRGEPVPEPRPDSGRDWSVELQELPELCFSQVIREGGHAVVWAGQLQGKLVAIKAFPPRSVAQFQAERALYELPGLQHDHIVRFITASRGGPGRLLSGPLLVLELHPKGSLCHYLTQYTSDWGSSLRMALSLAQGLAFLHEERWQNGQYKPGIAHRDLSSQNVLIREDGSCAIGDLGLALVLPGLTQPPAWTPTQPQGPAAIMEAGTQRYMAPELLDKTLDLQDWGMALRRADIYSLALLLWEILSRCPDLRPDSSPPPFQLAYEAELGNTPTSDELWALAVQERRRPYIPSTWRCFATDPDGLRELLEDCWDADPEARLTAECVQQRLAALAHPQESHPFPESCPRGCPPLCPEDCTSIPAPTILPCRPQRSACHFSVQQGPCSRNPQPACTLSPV
Assay: cell-based or functional assay

expression of a luciferase reporter gene over background levels, 10 nM, 3-day assay, P19 reporter cell line: ~10 fold
B1: Müllerian-inhibiting substance (MIS) (ligand)
chain: SAGATAADGPCALRELSVDLRAERSVLIPETYQANNCQGVCGWPQSDRNPRYGNHVVLLLKMQVRGAALARPPCCVPTAYAGKLLISLSEERISAHHVPNMVATECGCR
